Laboratory results: patent US20070203071A1

Tests used:
[1] = molecular target: hP1R (human) (UniProt Q03431); assay: competition binding, 125I-PTH(1-15) tracer, HKRK-B7 cells
[2] = molecular target: -; assay: competition binding, 125I-PTH(1-15) tracer, HKRK-B28 cells
[3] = molecular target: wild-type human P1R (human) (UniProt Q03431); assay: competition binding, 125I-PTH(1-15) tracer, HKRK-B7 cells
Chain of wild-type human P1R (human) (Q03431 27-593): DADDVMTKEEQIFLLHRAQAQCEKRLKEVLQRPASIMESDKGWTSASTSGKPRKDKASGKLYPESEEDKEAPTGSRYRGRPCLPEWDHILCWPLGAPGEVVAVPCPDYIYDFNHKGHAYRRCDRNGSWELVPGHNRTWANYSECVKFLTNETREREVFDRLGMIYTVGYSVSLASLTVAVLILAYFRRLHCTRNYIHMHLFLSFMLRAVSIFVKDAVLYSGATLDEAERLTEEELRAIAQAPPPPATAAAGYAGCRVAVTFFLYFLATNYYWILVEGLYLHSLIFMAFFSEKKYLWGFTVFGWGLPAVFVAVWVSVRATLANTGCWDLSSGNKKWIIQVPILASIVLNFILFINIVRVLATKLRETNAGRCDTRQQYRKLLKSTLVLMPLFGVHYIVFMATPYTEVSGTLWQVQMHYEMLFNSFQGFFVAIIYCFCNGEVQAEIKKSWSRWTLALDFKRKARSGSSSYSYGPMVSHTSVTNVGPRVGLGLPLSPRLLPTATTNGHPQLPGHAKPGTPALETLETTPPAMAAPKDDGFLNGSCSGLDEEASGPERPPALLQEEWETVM

Chain of [Ile^5, Trp^23, Tyr^36]PTHrP(5-36)NH2 (P12272 41-72): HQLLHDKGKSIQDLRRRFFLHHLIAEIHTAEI
Chain of hP1R (human) (Q03431 27-593): as the sequence (Q03431 27-593) above

IC50 [2]	Substance	further results
–	PTH(1-34)	IC50 [1]: 2 nM
18 nM	[Aib1,3,M]PTH(1-21)	–
750 nM	[Aib3,M]PTH(3-21)	–
–	[Ile^5, Trp^23, Tyr^36]PTHrP(5-36)NH2 (from UniProt P12272 41-72)	IC50 [3]: 50 nM
4.8 nM	rPTH(1-34)	–
